Data reported in the Human Domainome abundance scans (Beltran et al. 2025).
± gives the uncertainty stated by the source.

B1: Dystrobrevin alpha, residues 235 to 294; numbered along this chain, Q9Y4J8 (parent)
chain: ENVFHPVECSYCHSESMMGFRYRCQQCHNYQLCQDCFWRGHAGGSHSNQHQMKEYTSWKS

Variants of: B1
Experiment: abundance fitness (aPCA) (normalised: wild type 0, dead -1); higher = more abundant; growth selection in yeast, the domain comes from the species named
Conditions: Homo sapiens

Row | Variant | abundance fitness
1 | M17G | 0.085 ± 0.047
2 | M17V | 0.004 ± 0.059
3 | M17Q | -0.019 ± 0.086
4 | M17K | 0.136 ± 0.066
5 | G19H | 0.003 ± 0.094
6 | G19D | -0.046 ± 0.14
7 | G19A | 0.176 ± 0.069
8 | G19N | -0.027 ± 0.085
9 | G19I | -0.256 ± 0.11
10 | G19Y | -0.248 ± 0.071
11 | G19L | -0.134 ± 0.044
12 | G19K | 0.129 ± 0.062
13 | G19E | -0.103 ± 0.075
14 | G19S | 0.089 ± 0.051
15 | G19V | -0.13 ± 0.071
16 | G19M | -0.167 ± 0.075
17 | G19P | 0.018 ± 0.084
18 | G19F | -0.219 ± 0.09
19 | G19C | -0.191 ± 0.077
20 | G19T | -0.147 ± 0.084
21 | G19Q | 0.046 ± 0.04
22 | Y22E | -0.675 ± 0.17
23 | Y22V | -0.051 ± 0.075
24 | Y22G | -0.658 ± 0.11

Row | Variant | abundance fitness
25 | Y22P | -0.904 ± 0.32
26 | Y22C | -0.409 ± 0.15
27 | Y22L | -0.3 ± 0.063
28 | Y22N | -0.364 ± 0.27
29 | Y22R | -0.241 ± 0.083
30 | Y22I | -0.337 ± 0.14
31 | Y22D | -0.814 ± 0.15
32 | Y22S | -0.405 ± 0.085
33 | Y22W | -0.086 ± 0.069
34 | Y22T | -0.437 ± 0.11
35 | Y22K | -0.263 ± 0.095
36 | Y22Q | -0.754 ± 0.17
37 | Y22A | -0.13 ± 0.07
38 | Y22M | -0.142 ± 0.15
39 | Y22H | -0.053 ± 0.29
40 | M18H | 0.163 ± 0.09
41 | M18Q | 0.156 ± 0.12
42 | M18V | 0.155 ± 0.055
43 | M18S | 0.133 ± 0.052
44 | M18T | 0.075 ± 0.06
45 | M18P | 0.116 ± 0.064
46 | M18G | 0.064 ± 0.059
47 | M18K | 0.029 ± 0.07
48 | M18I | -0.021 ± 0.092

Row | Variant | abundance fitness
49 | M18Y | 0.075 ± 0.073
50 | M18E | 0.103 ± 0.068
51 | M18N | 0.101 ± 0.074
52 | M18R | 0.111 ± 0.048
53 | M18A | 0.199 ± 0.053
54 | M18L | 0.09 ± 0.055
55 | M18D | 0.129 ± 0.072
56 | M18W | -0.266 ± 0.12
57 | M18F | 0.126 ± 0.088
58 | M18C | -0.189 ± 0.071
59 | R21E | -0.07 ± 0.23
60 | R21L | 0.058 ± 0.11
61 | R21T | 0.088 ± 0.096
62 | R21V | -0.207 ± 0.081
63 | R21S | 0.138 ± 0.095
64 | R21G | -0.15 ± 0.09
65 | R21C | -0.092 ± 0.16
66 | R21M | 0.063 ± 0.11
67 | R21F | -0.188 ± 0.21
68 | R21W | -0.02 ± 0.28
69 | R21I | -0.128 ± 0.16
70 | R21D | -0.436 ± 0.12
71 | R21H | 0.165 ± 0.2
72 | R21A | -0.02 ± 0.1

Row | Variant | abundance fitness
73 | R21Y | -0.394 ± 0.45
74 | R21K | 0.047 ± 0.22
75 | S16R | 0.06 ± 0.046
76 | S16A | -0.049 ± 0.059
77 | S16H | -0.206 ± 0.083
78 | S16E | -0.033 ± 0.067
79 | S16I | 0.148 ± 0.055
80 | S16P | -0.029 ± 0.059
81 | S16L | 0.023 ± 0.045
82 | S16K | 0.001 ± 0.08
83 | S16T | 0.014 ± 0.062
84 | S16W | -0.208 ± 0.057
85 | S16N | -0.011 ± 0.074
86 | S16C | -0.092 ± 0.063
87 | S16D | 0.012 ± 0.085
88 | S16M | -0.041 ± 0.073
89 | S16V | 0.009 ± 0.055
90 | S16Q | 0.043 ± 0.089
91 | S16F | -0.084 ± 0.054
92 | S16G | -0.128 ± 0.056
93 | S16Y | -0.304 ± 0.069
94 | Q25E | 0.078 ± 0.064
95 | Q25A | -0.213 ± 0.063
96 | Q25M | 0.061 ± 0.091

Row | Variant | abundance fitness
97 | Q25G | -0.202 ± 0.052
98 | Q25D | -0.117 ± 0.095
99 | Q25R | -0.158 ± 0.052
100 | Q25T | -0.004 ± 0.072
101 | Q25W | -0.662 ± 0.11
102 | Q25S | -0.159 ± 0.042
103 | Q25V | 0.019 ± 0.048
104 | Q25I | -0.208 ± 0.13
105 | Q25P | -0.426 ± 0.078
106 | Q25C | -0.102 ± 0.1
107 | Q25F | -0.325 ± 0.12
108 | Q25K | -0.003 ± 0.066
109 | Q25N | -0.128 ± 0.095
110 | Q25L | -0.026 ± 0.053
111 | Q25H | -0.193 ± 0.16
112 | Q25Y | -0.327 ± 0.087
113 | H13Y | -0.165 ± 0.095
114 | H13W | -0.584 ± 0.077
115 | C24W | -1.07 ± 0.16
116 | C24L | -0.911 ± 0.062
117 | C24S | -0.851 ± 0.071
118 | C24V | -0.838 ± 0.1
119 | C24Q | -0.561 ± 0.1
120 | C24K | -0.928 ± 0.14

Row | Variant | abundance fitness
121 | C24E | -0.615 ± 0.046
122 | C24Y | -0.935 ± 0.23
123 | C24T | -0.752 ± 0.1
124 | C24I | -0.822 ± 0.19
125 | C24N | -0.691 ± 0.12
126 | C24M | -0.731 ± 0.12
127 | C24G | -0.736 ± 0.058
128 | C24F | -1.04 ± 0.14
129 | C24P | -1.08 ± 0.28
130 | C24H | -0.887 ± 0.15
131 | C24D | -0.441 ± 0.18
132 | C24R | -0.97 ± 0.071
133 | S14L | -0.153 ± 0.056
134 | S14F | -0.622 ± 0.11
135 | S14H | -0.081 ± 0.13
136 | S14K | -0.043 ± 0.11
137 | S14A | -0.051 ± 0.063
138 | S14T | -0.026 ± 0.053
139 | S14E | -0.074 ± 0.082
140 | S14N | -0.003 ± 0.11
141 | S14G | -0.11 ± 0.059
142 | S14Q | -0.16 ± 0.097
143 | S14R | 0.042 ± 0.06
144 | S14P | -0.679 ± 0.094

Row | Variant | abundance fitness
145 | S14Y | -0.324 ± 0.074
146 | S14C | -0.086 ± 0.077
147 | S14W | -0.416 ± 0.13
148 | S14D | -0.13 ± 0.072
149 | S14V | 0.088 ± 0.061
150 | S14M | -0.149 ± 0.057
151 | H28M | -0.008 ± 0.064
152 | H28T | 0.1 ± 0.053
153 | H28I | 0.033 ± 0.062
154 | H28P | 0.066 ± 0.078
155 | H28R | -0.002 ± 0.052
156 | H28A | 0.145 ± 0.043
157 | H28W | -0.16 ± 0.082
158 | H28N | 0.152 ± 0.076
159 | H28C | -0.093 ± 0.061
160 | H28F | -0.112 ± 0.065
161 | H28S | 0.027 ± 0.051
162 | H28G | -0.1 ± 0.042
163 | H28E | 0.063 ± 0.06
164 | H28D | 0.209 ± 0.053
165 | H28V | 0.06 ± 0.047
166 | H28K | 0.122 ± 0.063
167 | H28L | 0.002 ± 0.046
